This note sets out measurements from publication PMC2908990.

The term Kd denotes the concentration at which binding is half-saturated. A higher Kd goes with lower affinity.

The target of the assay is CH1 domain of the murine IgG1 heavy chain, oxidized (internal disulfide bridge formed) (murine) [IgG part: P01868]. Put plainly: other fluorescence titration.

For “CL domain of the murine MAK33 κ light chain (from UniProt P01837 1-107) (domain or fragment)”, the Kd stood at 6.2 µM.
